Molecular target: CD3 ζ SNID2 peptide (22-mer)
Test: ITC; MicroCal iTC200; 20 mM HEPES (pH 8.0), 100 mM NaCl, 25 °C; typically Nef at 200 μM injected from the syringe to 20 μM CD3 ζ in the cell

CD3 ζ SNID2 peptide (22-mer), sequence (P20963 other isoform, or with tags, fused parts or gaps): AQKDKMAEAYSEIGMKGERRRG

SIV_(mac239) Nef 66–235 (SIV Nef-B) (from UniProt Q5QGG3 66-235) (domain or fragment)
Kd: 2600 nM

Source: PMC5585231
